From the supplement of paper PMC7125110 come the findings set out here.

To fix the notation:
B1: glmS ribozyme (parent)
chain: AUAAAAGCGCCAGAACUACAGAAAUGUAGUUGACGAGGAGGAGGUUUAUCGAAUUUUCGGCGGAUGCCUCCAAA

± gives the standard error. For some of these results: Fewer inactive variants are shown than the library holds.

Holding throughout (settings): with glucosamine-6-phosphate
Variants of B1 are the subject of data set [1]. The experiment in a line: kcat; higher = faster cleavage; RNA array. The gist of the method: (§1)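 Glucosamine-6-phosphate, from 40 μM to 10 mM in HEPES/KCl/Mg(OAc)2 buffer, was flowed over sequenced MiSeq chips carrying barcoded ribozyme variants transcribed in situ by E. coli RNA polymerase. A hybridised Cy3 probe tracked the variants at 37 °C as tiles were imaged over ~14 h. kobs, kcat and KM were obtained by fitting normalised per-tile medians to exponential decays and then applying weighted Michaelis–Menten fits across concentrations.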

Variants of B1 are the subject of data set [2]. In words: self-cleavage kobs at 640 uM GlcN6P; higher = faster cleavage; RNA array. The gist of the method:
as §1

Data set [3] covers variants of B1. In words: self-cleavage kobs at 2500 uM GlcN6P; higher = faster cleavage; RNA array. In outline:
as §1

Data set [4] covers variants of B1. In words: KM; higher = weaker cofactor use; RNA array. The gist of the method:
as §1

Data set [5] covers variants of B1. The experiment in a line: self-cleavage kobs at 40 uM GlcN6P; higher = faster cleavage; RNA array. In outline:
as §1

In data set [6] the parent is B1. In words: self-cleavage kobs at 160 uM GlcN6P; higher = faster cleavage; RNA array. In outline:
as §1

Variants of B1 are the subject of data set [7]. In words: self-cleavage kobs at 10000 uM GlcN6P; higher = faster cleavage; RNA array. The gist of the method:
as §1

On to C67A U69G, for which the kcat in data set [1] was found to be 4.96e-05 ± 1.7e-05 s⁻¹. For the same variant, the “self-cleavage kobs at 640 uM GlcN6P” value in data set [2] is 6.63e-05 ± 1.6e-05 s⁻¹. In addition, the “self-cleavage kobs at 2500 uM GlcN6P” value in data set [3] was determined as 6.57e-05 ± 1.3e-05 s⁻¹.

U56G C70G: the catalytic constant (kcat) in data set [1] was found to be 9.25e-05 ± 3.2e-06 s⁻¹. Besides, in data set [4], the KM is 61.4 ± 13 µM. Besides, in data set [5], the “self-cleavage kobs at 40 uM GlcN6P” value was determined as 4.14e-05 ± 9.7e-06 s⁻¹. Also, in data set [6], the “self-cleavage kobs at 160 uM GlcN6P” value was determined as 6.12e-05 ± 1e-05 s⁻¹. Moreover, the “self-cleavage kobs at 640 uM GlcN6P” value in data set [2] was 8.21e-05 ± 8.7e-06 s⁻¹. Further, the “self-cleavage kobs at 2500 uM GlcN6P” value in data set [3] worked out at 9.14e-05 ± 1.1e-05 s⁻¹. Also, the “self-cleavage kobs at 10000 uM GlcN6P” value in data set [7] was 9.54e-05 ± 9.8e-06 s⁻¹.

G41A U54G: the turnover number (kcat) in data set [1] amounted to 0.000873 ± 0.00013 s⁻¹. Also, the KM in data set [4] turned out to be 336 ± 90 µM. Besides, in data set [5], the “self-cleavage kobs at 40 uM GlcN6P” value stood at 9.13e-05 ± 1.9e-05 s⁻¹. Also, in data set [2], the “self-cleavage kobs at 640 uM GlcN6P” value worked out at 0.00057 ± 0.00021 s⁻¹. Also, the “self-cleavage kobs at 2500 uM GlcN6P” value in data set [3] came to 0.000898 ± 0.00016 s⁻¹. In data set [7], the “self-cleavage kobs at 10000 uM GlcN6P” value came out at 0.000661 ± 0.00021 s⁻¹.

In the case of A39U U57G, in data set [1], the turnover number (kcat) worked out at 2.55e-05 ± 5.3e-06 s⁻¹. Also, the “self-cleavage kobs at 2500 uM GlcN6P” value in data set [3] turned out to be 3.12e-05 ± 1.3e-05 s⁻¹. Further, the “self-cleavage kobs at 10000 uM GlcN6P” value in data set [7] is 2.2e-05 ± 9.3e-06 s⁻¹.

For the variant A14C U30C, the catalytic constant (kcat) in data set [1] worked out at 1.53e-05 ± 3.1e-07 s⁻¹. The KM in data set [4] was determined as 151 ± 50 µM. Also, the “self-cleavage kobs at 160 uM GlcN6P” value in data set [6] is < 1e-05 s⁻¹.

On to G51U U57A, for which, in data set [1], the catalytic constant (kcat) is < 1e-05 s⁻¹. In addition, the “self-cleavage kobs at 2500 uM GlcN6P” value in data set [3] is < 1e-05 s⁻¹. In data set [7], the “self-cleavage kobs at 10000 uM GlcN6P” value was < 1e-05 s⁻¹.

As for U55G A64U, in data set [1], the catalytic constant (kcat) was 0.000152 ± 1.9e-05 s⁻¹. Further, the Michaelis constant (KM) in data set [4] is 3480 ± 950 µM. The “self-cleavage kobs at 2500 uM GlcN6P” value in data set [3] came to 6.75e-05 ± 8.7e-06 s⁻¹. Also, the “self-cleavage kobs at 10000 uM GlcN6P” value in data set [7] was found to be 0.00011 ± 1.4e-05 s⁻¹.

Turning to U31C G66U, the kcat in data set [1] was determined as 0.000326 ± 6.8e-05 s⁻¹. Also, in data set [4], the KM is 4610 ± 1700 µM. In addition, in data set [3], the “self-cleavage kobs at 2500 uM GlcN6P” value turned out to be 0.000124 ± 1.6e-05 s⁻¹. Moreover, in data set [7], the “self-cleavage kobs at 10000 uM GlcN6P” value is 0.000214 ± 3.5e-05 s⁻¹.

As for U30G A64C, in data set [1], the turnover number (kcat) was 5.41e-05 ± 5.3e-06 s⁻¹. Besides, the KM in data set [4] came out at 4950 ± 1100 µM. Moreover, the “self-cleavage kobs at 10000 uM GlcN6P” value in data set [7] is 3.61e-05 ± 1.5e-05 s⁻¹.

U57C C68U: the turnover number (kcat) in data set [1] worked out at 6e-05 ± 5.6e-07 s⁻¹. In addition, in data set [4], the Michaelis constant (KM) was found to be 1210 ± 64 µM. Also, the “self-cleavage kobs at 2500 uM GlcN6P” value in data set [3] came to 3.96e-05 ± 1.4e-05 s⁻¹. The “self-cleavage kobs at 10000 uM GlcN6P” value in data set [7] came to 5.36e-05 ± 6e-06 s⁻¹.

Turning to C11U U55A, the kcat in data set [1] came out at 0.00167 ± 0.0004 s⁻¹. The Michaelis-Menten constant (KM) in data set [4] came out at 1260 ± 470 µM. Besides, the “self-cleavage kobs at 40 uM GlcN6P” value in data set [5] stood at 6.97e-05 ± 1.2e-05 s⁻¹. Also, in data set [6], the “self-cleavage kobs at 160 uM GlcN6P” value was 0.000177 ± 3.7e-05 s⁻¹. Moreover, the “self-cleavage kobs at 640 uM GlcN6P” value in data set [2] came to 0.000478 ± 9.1e-05 s⁻¹. Also, the “self-cleavage kobs at 2500 uM GlcN6P” value in data set [3] was determined as 0.000891 ± 0.0002 s⁻¹. The “self-cleavage kobs at 10000 uM GlcN6P” value in data set [7] was 0.0018 ± 0.00026 s⁻¹.

With G40A G66A, in data set [1], the kcat amounted to 0.00833 ± 0.0037 s⁻¹. In data set [5], the “self-cleavage kobs at 40 uM GlcN6P” value came to 0.000144 ± 2e-05 s⁻¹. The “self-cleavage kobs at 160 uM GlcN6P” value in data set [6] stood at 0.000201 ± 8.8e-05 s⁻¹. The “self-cleavage kobs at 640 uM GlcN6P” value in data set [2] was determined as 0.00165 ± 0.00041 s⁻¹. Moreover, the “self-cleavage kobs at 10000 uM GlcN6P” value in data set [7] turned out to be 0.00641 ± 0.00098 s⁻¹.

Take C58U C70A: the kcat in data set [1] came out at 2.29e-05 ± 6.9e-06 s⁻¹. In addition, the “self-cleavage kobs at 640 uM GlcN6P” value in data set [2] was determined as 3.84e-05 ± 1.4e-05 s⁻¹.

As for U30G U56A, in data set [1], the kcat was determined as 0.00811 ± 0.0019 s⁻¹. Besides, the Michaelis constant (KM) in data set [4] came to 2730 ± 850 µM. For the same variant, the “self-cleavage kobs at 40 uM GlcN6P” value in data set [5] was 0.000125 ± 1.6e-05 s⁻¹. For the same variant, the “self-cleavage kobs at 160 uM GlcN6P” value in data set [6] amounted to 0.000498 ± 0.0001 s⁻¹. In addition, in data set [2], the “self-cleavage kobs at 640 uM GlcN6P” value came out at 0.00146 ± 0.00024 s⁻¹. In addition, the “self-cleavage kobs at 2500 uM GlcN6P” value in data set [3] amounted to 0.003 ± 0.00057 s⁻¹. Moreover, the “self-cleavage kobs at 10000 uM GlcN6P” value in data set [7] amounted to 0.00771 ± 0.0011 s⁻¹.

Consider C50U G63C, for which, in data set [1], the catalytic constant (kcat) was < 1e-05 s⁻¹. In data set [7], the “self-cleavage kobs at 10000 uM GlcN6P” value is < 1e-05 s⁻¹.

U30A A53U: the kcat in data set [1] was found to be 0.00525 ± 0.00098 s⁻¹. Further, the Michaelis-Menten constant (KM) in data set [4] came out at 1860 ± 480 µM. In addition, the “self-cleavage kobs at 40 uM GlcN6P” value in data set [5] amounted to 0.000128 ± 1.8e-05 s⁻¹. Moreover, the “self-cleavage kobs at 160 uM GlcN6P” value in data set [6] came out at 0.00035 ± 7.7e-05 s⁻¹. Moreover, the “self-cleavage kobs at 640 uM GlcN6P” value in data set [2] is 0.00135 ± 0.00021 s⁻¹. Besides, the “self-cleavage kobs at 2500 uM GlcN6P” value in data set [3] came out at 0.00272 ± 0.00042 s⁻¹. Further, in data set [7], the “self-cleavage kobs at 10000 uM GlcN6P” value came out at 0.00523 ± 0.001 s⁻¹.

Take G29U U65C: the kcat in data set [1] worked out at 6.8e-05 ± 1.9e-05 s⁻¹. In addition, the “self-cleavage kobs at 2500 uM GlcN6P” value in data set [3] was determined as 6.54e-05 ± 1.3e-05 s⁻¹. In addition, the “self-cleavage kobs at 10000 uM GlcN6P” value in data set [7] was 5.46e-05 ± 1.2e-05 s⁻¹.

One may read the kcat as the number of substrate molecules converted per active site and unit of time at saturation. What is called KM is the concentration of substrate that gives half-maximal velocity.
